Experimental data: paper PMC2922928 (Nature structural & molecular biology, 2010)

Assays:
Test in all cases: ELISA
[1] = biological target: Flag-p53 purified from insect cells (unacetylated) (human, UniProt P04637 1-393)
[2] = biological target: His-tagged p53 purified from bacteria (human, UniProt P04637 1-393)
[3] = biological target: His-tagged p53(ΔC30) purified from bacteria (human, UniProt P04637 1-363)

Measured: binding result

B1: untagged Mdm2(10–139) (domain or fragment)
chain: GSMTDGAVTTSQIPASEQETLVRPKPLLLKLLKSVGAQKDTYTMKEVLFYLGQYIMTKRLYDEKQQHIVYCSNDLLGDLFGVPSFSVKEHRKIYTMIYRNLVVVNQQESSDSGTSVSENRCHLEGGSDQKDLV
binds: all assays above
